The source of these data is the supplement of paper PMC5998384.

The test system of data set [1] is HeLa Kyoto. As to the kind of experiment: thermal stability score vs G1/S (z-score of summed log2 fold changes over temperatures); higher = more thermally stable than in G1/S.
The test system of data set [2] is HeLa Kyoto. Nature of the data set: solubility in G1/S (NP-40 vs SDS abundance) (log2 ratio); higher = more soluble. Particulars: cell cycle stage: G1/S.
Data set [3] relates to HeLa Kyoto. As to the kind of experiment: melting temperature (median over replicates), in situ; higher = more thermally stable.
Data set [4] concerns HeLa Kyoto. Nature of the data set: solubility change mitosis vs G1/S (difference of NP-40 vs SDS log2 ratios) (log2 ratio difference); higher = more soluble in mitosis.
The mark [5] stands for this setting: cell cycle stage: early G1 (4.5 h after nocodazole release).
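Throughout, for melting temperature (median over replicates), in situ: HeLa Kyoto cells synchronized by double thymidine or nocodazole block, proteins quantified by TMT10plex mass spectrometry, three independent biological replicates.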
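Throughout, for solubility change mitosis vs G1/S (difference of NP-40 vs SDS log2 ratios): synchronized HeLa Kyoto cells (double thymidine block for G1/S, nocodazole release for mitosis), protein amounts in NP-40 versus SDS lysates quantified by mass spectrometry, three biological replicates.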
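Throughout, for solubility in G1/S (NP-40 vs SDS abundance): HeLa Kyoto cells arrested at G1/S by double thymidine block, proteins quantified by TMT10plex mass spectrometry in mild NP-40 versus SDS extracts, three biological replicates.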
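Throughout, for thermal stability score vs G1/S (z-score of summed log2 fold changes over temperatures): synchronized HeLa Kyoto cells, proteins quantified by TMT10plex mass spectrometry, three biological replicates, mitosis taken 0.5 h after nocodazole release, G1/S directly after double thymidine block.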

On to “MAQKKYLQAKLTQFLREDRIQLWKPPYTDENKKVGLALKDLAKQYSDRLECCENEVEKVIEEIRCKAIERGTGNDNYRTTGIATIEVFLPPRLKKDRKNLLETRLHITGRELRSKIAETFGLQENYIKIVINKKQLQLGKTLEEQGVAHNVKAMVLELKQSEEDARKNFQLEEEEQNEAKLKEKQIQRTKRGLEILAKRAAETVVDPEMTPYLDIANQTGRSIRIPPSERKALMLAMGYHEKGRAFLKRKEYGIALPCLLDADKYFCECCRELLDTVDNYAVLQLDIVWCYFRLEQLECLDDAEKKLNLAQKCFKNCYGENHQRLVHIKGNCGKEKVLFLRLYLLQGIRNYHSGNDVEAYEYLNKARQLFKELYIDPSKVDNLLQLGFTAQEARLGLRACDGNVDHAATHITNRREELAQIRKEEKEKKRRRLENIRFLKGMGYSTHAAQQVLHAASGNLDEALKILLSNPQMWWLNDSNPETDNRQESPSQENIDRLVYMGFDALVAEAALRVFRGNVQLAAQTLAHNGGSLPPELPLSPEDSLSPPATSPSDSAGTSSASTDEDMETEAVNEILEDIPEHEEDYLDSTLEDEEIIIAEYLSYVENRKSATKKN [NUB1]”, for which the thermal stability score in the data set on HeLa Kyoto [1] (setting [5]) was 1.06; with HeLa Kyoto [1] (cell cycle stage: mitosis) it was 1.85. For the same sequence, the “solubility in G1/S (log2)” value in the data set on HeLa Kyoto [2] is -0.169. Moreover, the melting temperature is 47.9 °C in the data set on HeLa Kyoto [3] (cell cycle stage: G1/S) and 50.3 °C with HeLa Kyoto [3] (cell cycle stage: mitosis). Besides, in the data set with HeLa Kyoto [4], the “solubility change mitosis (log2)” value was -0.203.

As for “MAQPGPASQPDVSLQQRVAELEKINAEFLRAQQQLEQEFNQKRAKFKELYLAKEEDLKRQNAVLQAAQDDLGHLRTQLWEAQAEMENIKAIATVSENTKQEAIDEVKRQWREEVASLQAVMKETVRDYEHQFHLRLEQERTQWAQYRESAEREIADLRRRLSEGQEEENLENEMKKAQEDAEKLRSVVMPMEKEIAALKDKLTEAEDKIKELEASKVKELNHYLEAEKSCRTDLEMYVAVLNTQKSVLQEDAEKLRKELHEVCHLLEQERQQHNQLKHTWQKANDQFLESQRLLMRDMQRMEIVLTSEQLRQVEELKKKDQEDDEQQRLNKRKDHKKADVEEEIKIPVVCALTQEESSAQLSNEEEHLDSTRGSVHSLDAGLLLPSGDPFSKSDNDMFKDGLRRAQSTDSLGTSGSLQSKALGYNYKAKSAGNLDESDFGPLVGADSVSENFDTASLGSLQMPSGFMLTKDQERAIKAMTPEQEETASLLSSVTQGMESAYVSPSGYRLVSETEWNLLQKEVHNAGNKLGRRCDMCSNYEKQLQGIQIQEAETRDQVKKLQLMLRQANDQLEKTMKDKQELEDFIKQSSEDSSHQISALVLRAQASEILLEELQQGLSQAKRDVQEQMAVLMQSREQVSEELVRLQKDNDSLQGKHSLHVSLQQAEDFILPDTTEALRELVLKYREDIINVRTAADHVEEKLKAEILFLKEQIQAEQCLKENLEETLQLEIENCKEEIASISSLKAELERIKVEKGQLESTLREKSQQLESLQEIKISLEEQLKKETAAKATVEQLMFEEKNKAQRLQTELDVSEQVQRDFVKLSQTLQVQLERIRQADSLERIRAILNDTKLTDINQLPET [RABEP1]”, the figures for the thermal stability score in the data set with HeLa Kyoto [1] (setting [5]) and in the data set on HeLa Kyoto [1] (cell cycle stage: mitosis) were -1 and -0.882, respectively. Moreover, in the data set with HeLa Kyoto [2], the “solubility in G1/S (log2)” value turned out to be 0.412. Also, the melting temperature is 51 °C in the data set with HeLa Kyoto [3] (cell cycle stage: G1/S) and 50.4 °C with HeLa Kyoto [3] (cell cycle stage: mitosis). For the same sequence, in the data set on HeLa Kyoto [4], the “solubility change mitosis (log2)” value was -0.0841.

“MAQPPPDVEGDDCLPAYRHLFCPDLLRDKVAFITGGGSGIGFRIAEIFMRHGCHTVIASRSLPRVLTAARKLAGATGRRCLPLSMDVRAPPAVMAAVDQALKEFGRIDILINCAAGNFLCPAGALSFNAFKTVMDIDTSGTFNVSRVLYEKFFRDHGGVIVNITATLGNRGQALQVHAGSAKAAVDAMTRHLAVEWGPQNIRVNSLAPGPISGTEGLRRLGGPQASLSTKVTASPLQRLGNKTEIAHSVLYLASPLASYVTGAVLVADGGAWLTFPNGVKGLPDFASFSAKL [DECR2]”: the values for the thermal stability score in the data set with HeLa Kyoto [1] (setting [5]) and with HeLa Kyoto [1] (cell cycle stage: mitosis) were 1.32 and 0.657, respectively. Further, in the data set with HeLa Kyoto [2], the “solubility in G1/S (log2)” value came to 0.0495. Besides, the results for the melting temperature in the data set on HeLa Kyoto [3] (cell cycle stage: G1/S) and with HeLa Kyoto [3] (cell cycle stage: mitosis) were 51.9 °C and 52.1 °C, respectively. Moreover, the “solubility change mitosis (log2)” value with HeLa Kyoto [4] was -0.232.

On to “MAQRKNAKSSGNSSSSGSGSGSTSAGSSSPGARRETKHGGHKNGRKGGLSGTSFFTWFMVIALLGVWTSVAVVWFDLVDYEEVLGKLGIYDADGDGDFDVDDAKVLLGLKERSTSEPAVPPEEAEPHTEPEEQVPVEAEPQNIEDEAKEQIQSLLHEMVHAEHVEGEDLQQEDGPTGEPQQEDDEFLMATDVDDRFETLEPEVSHEETEHSYHVEETVSQDCNQDMEEMMSEQENPDSSEPVVEDERLHHDTDDVTYQVYEEQAVYEPLENEGIEITEVTAPPEDNPVEDSQVIVEEVSIFPVEEQQEVPPETNRKTDDPEQKAKVKKKKPKLLNKFDKTIKAELDAAEKLRKRGKIEEAVNAFKELVRKYPQSPRARYGKAQCEDDLAEKRRSNEVLRGAIETYQEVASLPDVPADLLKLSLKRRSDRQQFLGHMRGSLLTLQRLVQLFPNDTSLKNDLGVGYLLIGDNDNAKKVYEEVLSVTPNDGFAKVHYGFILKAQNKIAESIPYLKEGIESGDPGTDDGRFYFHLGDAMQRVGNKEAYKWYELGHKRGHFASVWQRSLYNVNGLKAQPWWTPKETGYTELVKSLERNWKLIRDEGLAVMDKAKGLFLPEDENLREKGDWSQFTLWQQGRRNENACKGAPKTCTLLEKFPETTGCRRGQIKYSIMHPGTHVWPHTGPTNCRLRMHLGLVIPKEGCKIRCANETKTWEEGKVLIFDDSFEHEVWQDASSFRLIFIVDVWHPELTPQQRRSLPAI [ASPH]”, for which the values for the thermal stability score in the data set with HeLa Kyoto [1] (setting [5]) and in the data set with HeLa Kyoto [1] (cell cycle stage: mitosis) were 1.63 and 2.03, respectively. Also, the “solubility in G1/S (log2)” value in the data set on HeLa Kyoto [2] was -0.00862. Besides, the melting temperature in the data set with HeLa Kyoto [3] (cell cycle stage: G1/S) was determined as 54.2 °C; with HeLa Kyoto [3] (cell cycle stage: mitosis), 53.5 °C. Further, the “solubility change mitosis (log2)” value in the data set with HeLa Kyoto [4] worked out at 0.0282.

For the sequence “MAQSRDGGNPFAEPSELDNPFQDPAVIQHRPSRQYATLDVYNPFETREPPPAYEPPAPAPLPPPSAPSLQPSRKLSPTEPKNYGSYSTQASAAAATAELLKKQEELNRKAEELDRRERELQHAALGGTATRQNNWPPLPSFCPVQPCFFQDISMEIPQEFQKTVSTMYYLWMCSTLALLLNFLACLASFCVETNNGAGFGLSILWVLLFTPCSFVCWYRPMYKAFRSDSSFNFFVFFFIFFVQDVLFVLQAIGIPGWGFSGWISALVVPKGNTAVSVLMLLVALLFTGIAVLGIVMLKRIHSLYRRTGASFQKAQQEFAAGVFSNPAVRTAAANAAAGAAENAFRAP [SCAMP3]”, the thermal stability score in the data set on HeLa Kyoto [1] (setting [5]) was -1.12; in the data set with HeLa Kyoto [1] (cell cycle stage: mitosis), 0.091. In the data set with HeLa Kyoto [2], the “solubility in G1/S (log2)” value stood at 0.19. The values for the melting temperature in the data set with HeLa Kyoto [3] (cell cycle stage: G1/S) and in the data set with HeLa Kyoto [3] (cell cycle stage: mitosis) were 58.2 °C and 57.8 °C, respectively. In the data set on HeLa Kyoto [4], the “solubility change mitosis (log2)” value was -0.173.
